Results reported in publication PMC5412564 (The Journal of Cell Biology, 2017).

B1: 549-SNAP-VopL (domain or fragment)
chain: LSIKHGSSIPPAPPLPGAIPPAPPLNLSKGAPKSSSNSLDSVNEDHSKLMEQIRQGVKLKSATKSLSADKSSADAHSKLMEELLTGGRKLKKVATSDIPAPPPLPSASTSKSPDSRNALLSEIAGFSKDRLRKTGSLETLNSSQSKDKESFEPTTHERLLSEDLFKQSPKLSEQELDELANNLADYLFQAADIDWHQVISEKTRGLTTEEMAKSEHRYVQAFCREILKYPDCYKSADVASPESPKSGGGSVIDVALKRLQTGRERLFTTTDEKGNRELKKGDAILESAINAARMAISTEEKNTILSNNVKSATFEVFCELPCMDGFAEQNGKTAFYALRAGFYSAFKNTDTAKQDITKFMKDNLQAGFSGYSYQGLTNRVAQLEAQLAALSAKLS
modifications: SNAP-Surface 549 on the SNAP-tag (labeling efficiency ~75%)

Tests used:
[1] = molecular target: 549-SNAP-VopF (Vibrio cholera (so in the source)); experiment: photobleaching step counting of single molecules
[2] = molecular target: the molecule itself; experiment: photobleaching step counting of single molecules

Molecule | stoichiometry N [1] | stoichiometry N [2]
549-SNAP-VopF (domain or fragment) | 2 | 
B1 |  | 2
